Assay results published in US20120231005A1 (Merck Sharp & Dohme, published 2012).

What was measured:
rhesus PCSK9 (rhesus) [1] = assay: affinity table, IgG2 (Biacore)
human FcRn = molecular target: T1, human FcRn (human, UniProt P55899 24-297; P61769 21-119, limits assumed); assay: Biacore; human FcRn immobilised, 100 nM mAb bound at pH 6.0, read 5 s into dissociation at pH 7.3
T1 construct: Beta-2-microglobulin is not mentioned for the purified protein; also called human FeRn
Protocol: The neutral pH dissociation of mAbs from human FeRn was measured by SPR using a Biacore T-100 instrument. Briefly, purified FeRn protein was immobilized onto a Biacore CM5 biosensor chip and PBSP (50 mM NaPO4, 150 mM NaCl and 0.05% (v/v) Surfactant 20) pH 7.3 was used as running buffer. The mAbs were diluted with PBSP pH 6.0 to 100 nM, allowed to bind FcRn for 3 minutes to reach equilibrium and followed by 1 minute of dissociation in pH 7.3 running buffer. A report point (Stability) was inserted at 5 seconds after the end of mAb binding and the “% bound” was calculated as RUStability/RUBinding (%).

rhesus PCSK9 (rhesus) [2] = assay: cell-based or functional assay
rhesus PCSK9 (rhesus) [3] = assay: SPR (Biacore); IgG captured on anti-human IgG, PCSK9 injected
human PCSK9 [4] = molecular target: T2, human PCSK9 (human, UniProt Q8NBP7 31-692, limits assumed); assay: as above
T2 construct: It carried an AlexaFluor647 label in the TR-FRET assay only; also called hPCSK9; wild type human PCSK9
T2 sequence (Q8NBP7 31-692 limits assumed): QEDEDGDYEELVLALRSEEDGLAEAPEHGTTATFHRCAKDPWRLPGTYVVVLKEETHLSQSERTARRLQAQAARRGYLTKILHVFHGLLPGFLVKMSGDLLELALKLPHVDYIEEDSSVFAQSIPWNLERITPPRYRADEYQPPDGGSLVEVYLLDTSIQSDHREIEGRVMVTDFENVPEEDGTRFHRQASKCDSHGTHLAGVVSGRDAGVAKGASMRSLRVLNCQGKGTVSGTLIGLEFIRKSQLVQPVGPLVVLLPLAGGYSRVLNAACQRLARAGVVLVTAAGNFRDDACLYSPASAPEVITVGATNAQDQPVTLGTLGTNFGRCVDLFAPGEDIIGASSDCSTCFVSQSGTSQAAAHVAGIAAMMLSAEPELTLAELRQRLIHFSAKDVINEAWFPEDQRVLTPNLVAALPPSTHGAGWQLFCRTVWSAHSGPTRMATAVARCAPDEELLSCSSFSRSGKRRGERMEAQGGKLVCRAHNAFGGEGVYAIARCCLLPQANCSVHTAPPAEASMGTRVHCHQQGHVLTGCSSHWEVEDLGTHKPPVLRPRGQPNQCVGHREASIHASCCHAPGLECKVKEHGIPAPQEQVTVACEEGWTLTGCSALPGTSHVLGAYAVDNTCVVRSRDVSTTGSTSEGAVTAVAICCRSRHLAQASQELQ
Protocol: (§1) The affinities of those IgG molecules were also measured by Biacore assay. Briefly, anti-human IgG monoclonal antibody form Human Antibody Capture Kit provided by Biacore was immobilized on CM5 chips at a level of 8000 to 10000 RU. […] After each round injection, the sensor chip surface was regenerated by 30 second injection of 3M Magnesium Chloride.

human PCSK9 [5] = molecular target: T2, human PCSK9; assay: TR-FRET; antibody titrated against 10 nM AF647-PCSK9 and about 4 nM Eu-LDLR ectodomain
Protocol: After at least 90 minutes of equilibration, samples were read in a Rubystar reader (BMG Corp.) using 20 flashes per well, a 50 μsec integration delay, and a 200 μsec total integration time.

human PCSK9 [6] = molecular target: T2, human PCSK9; assay: cell-based or functional assay
mouse PCSK9 = molecular target: T3, mouse PCSK9 (mouse, UniProt Q80W65 35-694, limits assumed); assay: affinity table, IgG2 (Biacore)
T3 construct: also called Mouse PCSK9 9
T3 sequence (Q80W65 35-694 limits assumed): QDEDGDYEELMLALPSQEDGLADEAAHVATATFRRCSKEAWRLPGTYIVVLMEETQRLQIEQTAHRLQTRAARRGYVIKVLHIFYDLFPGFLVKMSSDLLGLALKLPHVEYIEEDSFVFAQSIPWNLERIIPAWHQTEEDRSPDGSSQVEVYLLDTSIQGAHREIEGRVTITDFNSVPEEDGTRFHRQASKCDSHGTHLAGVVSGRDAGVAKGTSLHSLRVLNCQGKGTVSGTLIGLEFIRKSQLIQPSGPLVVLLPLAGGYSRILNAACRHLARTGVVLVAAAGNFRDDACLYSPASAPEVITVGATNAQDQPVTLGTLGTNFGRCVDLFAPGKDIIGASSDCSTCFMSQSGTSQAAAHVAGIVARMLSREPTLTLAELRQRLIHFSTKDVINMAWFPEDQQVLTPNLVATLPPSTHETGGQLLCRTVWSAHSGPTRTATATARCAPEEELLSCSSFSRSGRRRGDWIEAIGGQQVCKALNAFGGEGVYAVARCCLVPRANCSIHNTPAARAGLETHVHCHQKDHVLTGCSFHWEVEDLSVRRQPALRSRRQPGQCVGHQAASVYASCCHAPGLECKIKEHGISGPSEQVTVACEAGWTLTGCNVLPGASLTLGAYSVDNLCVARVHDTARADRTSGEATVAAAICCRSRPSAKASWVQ
Protocol: as §1

human PCSK9 [7] = molecular target: T2, human PCSK9; assay: affinity table, IgG2 (Biacore)
Protocol: as §1

rat PCSK9 = molecular target: T4, rat PCSK9 (rat, UniProt P59996 31-691, limits assumed); assay: affinity table, IgG2 (Biacore)
T4 construct: also called rPCSK9
T4 sequence (P59996 31-691 limits assumed): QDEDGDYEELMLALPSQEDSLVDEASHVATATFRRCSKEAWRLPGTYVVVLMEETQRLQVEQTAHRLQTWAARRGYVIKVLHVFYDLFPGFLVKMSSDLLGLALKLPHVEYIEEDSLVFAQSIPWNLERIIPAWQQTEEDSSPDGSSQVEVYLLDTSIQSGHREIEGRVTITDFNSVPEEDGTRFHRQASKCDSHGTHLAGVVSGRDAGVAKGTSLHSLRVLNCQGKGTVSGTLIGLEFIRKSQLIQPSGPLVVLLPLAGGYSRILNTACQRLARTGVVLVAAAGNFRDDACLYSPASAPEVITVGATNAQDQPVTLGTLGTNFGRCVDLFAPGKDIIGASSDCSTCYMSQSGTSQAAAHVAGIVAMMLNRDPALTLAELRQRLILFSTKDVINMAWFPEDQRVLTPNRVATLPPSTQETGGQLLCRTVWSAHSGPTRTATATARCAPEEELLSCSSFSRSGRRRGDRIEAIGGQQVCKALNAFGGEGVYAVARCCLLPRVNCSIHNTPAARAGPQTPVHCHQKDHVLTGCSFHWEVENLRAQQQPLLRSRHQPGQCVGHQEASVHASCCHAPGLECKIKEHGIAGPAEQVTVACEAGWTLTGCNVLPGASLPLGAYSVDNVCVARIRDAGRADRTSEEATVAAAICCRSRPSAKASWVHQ
Protocol: as §1

human PCSK9 [8] = molecular target: T2, human PCSK9; assay: affinity table, IgG2 (Biacore); remark: listed apart in the source
Protocol: as §1

T1 sequence (P55899 24-297 limits assumed, form in doubt, chain 1 of 2): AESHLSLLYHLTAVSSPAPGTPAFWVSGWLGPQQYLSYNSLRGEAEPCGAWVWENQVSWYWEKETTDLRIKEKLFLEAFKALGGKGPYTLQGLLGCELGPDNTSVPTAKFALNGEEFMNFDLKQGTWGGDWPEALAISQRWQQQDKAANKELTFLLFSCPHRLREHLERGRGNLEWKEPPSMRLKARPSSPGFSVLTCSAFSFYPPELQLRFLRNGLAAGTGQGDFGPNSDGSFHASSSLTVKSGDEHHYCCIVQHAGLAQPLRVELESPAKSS
T1 sequence (P61769 21-119 limits assumed, form in doubt, chain 2 of 2): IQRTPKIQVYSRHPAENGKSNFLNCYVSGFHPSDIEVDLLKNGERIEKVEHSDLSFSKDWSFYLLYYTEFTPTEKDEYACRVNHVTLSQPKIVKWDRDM

| Binder | Kd (rhesus PCSK9 (rhesus) [1]) [nM] | % bound (RUStability/RUBinding) (human FcRn) [%] | IgG IC50 (nM), inhibition of PCSK9 on LDL uptake (Exopolar assay) (rhesus PCSK9 (rhesus) [2]) [nM] | Kd (rhesus PCSK9 (rhesus) [3]) [nM] | Kd (human PCSK9 [4]) [nM] | IC50 (human PCSK9 [5]) [nM] | IgG IC50 (nM), inhibition of PCSK9 on LDL uptake (Exopolar assay) (human PCSK9 [6]) [nM] | binding result (mouse PCSK9) | Kd (human PCSK9 [7]) [nM] | binding result (rat PCSK9) | Kd (human PCSK9 [8]) [nM] | Kd (mouse PCSK9) [nM] | Kd (rat PCSK9) [nM] |
| --- | --- | --- | --- | --- | --- | --- | --- | --- | --- | --- | --- | --- | --- |
| AX9 IgG2 (antibody) heavy: EVQLLESGGGLVQPGGSLRLSCKASGYTFSSYWMHWVRQAPGKGLEWIGRIDPYNGGTKYNEKFKGKATISRDNSKNTLYLQMNSLRAEDTAVYYCARYGYYLGSYAMDYWGQGTLVTVSSASTKGPSVFPLAPCSRSTSESTAALGCLVKDYFPEPVTVSWNSGALTSGVHTFPAVLQSSGLYSLSSVVTVPSSNFGTQTYTCNVDHKPSNTKVDKTVERKCCVECPPCPAPPVAGPSVFLFPPKPKDTLMISRTPEVTCVVVDVSHEDPEVQFNWYVDGVEVHNAKTKPREEQFNSTFRVVSVLTVVHQDWLNGKEYKCKVSNKGLPAPIEKTISKTKGQPREPQVYTLPPSREEMTKNQVSLTCLVKGFYPSDIAVEWESNGQPENNYKTTPPMLDSDGSFFLYSKLTVDKSRWQQGNVFSCSVMHEALHNHYTQKSLSLSPGK light: DIQMTQSPSSLSASVGDRVTITCRASQDVSKYLAWYQQKPGKAPKLLIYAASSLQSGVPSRFSGSGSGTDFTLTISSLQPEDFATYYCQVYDSSPNAYVFGGGTKVEIKRTVAAPSVFIFPPSDEQLKSGTASVVCLLNNFYPREAKVQWKVDNALQSGNSQESVTEQDSKDSTYSLSSTLTLSKADYEKHKVYACEVTHQGLSSPVTKSFNRGEC | 8.82 | 1 | 28.6 | 8.82 | 20.6 | 4.1 | 25.5 | no binding | 20.6 | no binding | – | – | – |
| AX188 IgG2 (antibody, V domains shown, IgG2) VH: EVQLLESGGGLVQPGGSLRLSCKASGYTFSSYWMHWVRQAPGKGLEWIGRIDPYNGGTKYNEKFKGKATISRDNSKNTLYLQMNSLRAEDTAVYYCARYGYYLGSYAMDYWGQGTLVTVSS VL: DIQMTQSPSSLSASVGDRVTITCRASQSVSRYLAWYQQKPGKAPKLLIYAASSLQSGVPSRFSGSGSGTDFTLTISSLQPEDFATYYCEAYDYSSGPWVFGGGTKVEIKR | – | – | 18.7 | 0.454 | 0.873 | – | 24.8 | – | – | – | – | – | – |
| AX189 IgG2 (antibody, the leaderless entry is used) heavy: EVQLLESGGGLVQPGGSLRLSCKASGYTFSSYWMHWVRQAPGKGLEWIGRIDPYNGGTKYNEKFKGKATISRDNSKNTLYLQMNSLRAEDTAVYYCARYGYYLGSYAMDYWGQGTLVTVSSASTKGPSVFPLAPCSRSTSESTAALGCLVKDYFPEPVTVSWNSGALTSGVHTFPAVLQSSGLYSLSSVVTVPSSNFGTQTYTCNVDHKPSNTKVDKTVERKCCVECPPCPAPPVAGPSVFLFPPKPKDTLMISRTPEVTCVVVDVSHEDPEVQFNWYVDGVEVHNAKTKPREEQFNSTFRVVSVLTVVHQDWLNGKEYKCKVSNKGLPAPIEKTISKTKGQPREPQVYTLPPSREEMTKNQVSLTCLVKGFYPSDIAVEWESNGQPENNYKTTPPMLDSDGSFFLYSKLTVDKSRWQQGNVFSCSVMHEALHNHYTQKSLSLSPGK light: DIQMTQSPSSLSASVGDRVTITCRASQDVSRYLTWYQQKPGKAPKLLIYAASSLQSGVPSRFSGSGSGTDFTLTISSLQPEDFATYYCQAYDYSLSGYVFGGGTKVEIKRTVAAPSVFIFPPSDEQLKSGTASVVCLLNNFYPREAKVQWKVDNALQSGNSQESVTEQDSKDSTYSLSSTLTLSKADYEKHKVYACEVTHQGLSSPVTKSFNRGEC | 1.24 | 0.9 | 9 | 1.24 | 1.84 | 6.4 | 9.4 | – | 1.84 | – | – | – | – |
| AX191 IgG2 (antibody, IgG2) heavy: EVQLLESGGGLVQPGGSLRLSCKASGYTFSSYWMHWVRQAPGKGLEWIGRIDPYNGGTKYNEKFKGKATISRDNSKNTLYLQMNSLRAEDTAVYYCARYGYYLGSYAMDYWGQGTLVTVSSASTKGPSVFPLAPCSRSTSESTAALGCLVKDYFPEPVTVSWNSGALTSGVHTFPAVLQSSGLYSLSSVVTVPSSNFGTQTYTCNVDHKPSNTKVDKTVERKCCVECPPCPAPPVAGPSVFLFPPKPKDTLMISRTPEVTCVVVDVSHEDPEVQFNWYVDGVEVHNAKTKPREEQFNSTFRVVSVLTVVHQDWLNGKEYKCKVSNKGLPAPIEKTISKTKGQPREPQVYTLPPSREEMTKNQVSLTCLVKGFYPSDIAVEWESNGQPENNYKTTPPMLDSDGSFFLYSKLTVDKSRWQQGNVFSCSVMHEALHNHYTQKSLSLSPGK light: DIQMTQSPSSLSASVGDRVTITCRASQDISKYLAWYQQKPGKAPKLLIYAASSLQSGVPSRFSGSGSGTDFTLTISSLQPEDFATYYCQAYDYSSSAYVFGGGTKVEIKRTVAAPSVFIFPPSDEQLKSGTASVVCLLNNFYPREAKVQWKVDNALQSGNSQESVTEQDSKDSTYSLSSTLTLSKADYEKHKVYACEVTHQGLSSPVTKSFNRGEC | – | 1.1 | 6.6 | 0.625 | 0.846 | 3 | 8.7 | – | – | – | – | – | – |
| AX1 IgG2 (antibody, Made in HEK293 cells or in glycoengineered Pichia) heavy: EVQLLESGGGLVQPGGSLRLSCKASGFTFTSYYMHWVRQAPGKGLEWIGRINPDSGSTKYNEKFKGRATISRDNSKNTLYLQMNSLRAEDTAVYYCARGGRLSWDFDVWGQGTLVTVSSASTKGPSVFPLAPCSRSTSESTAALGCLVKDYFPEPVTVSWNSGALTSGVHTFPAVLQSSGLYSLSSVVTVPSSNFGTQTYTCNVDHKPSNTKVDKTVERKCCVECPPCPAPPVAGPSVFLFPPKPKDTLMISRTPEVTCVVVDVSHEDPEVQFNWYVDGVEVHNAKTKPREEQFNSTFRVVSVLTVVHQDWLNGKEYKCKVSNKGLPAPIEKTISKTKGQPREPQVYTLPPSREEMTKNQVSLTCLVKGFYPSDIAVEWESNGQPENNYKTTPPMLDSDGSFFLYSKLTVDKSRWQQGNVFSCSVMHEALHNHYTQKSLSLSPGK light: DIQMTQSPSSLSASVGDRVTITCRASQDISRYLAWYQQKPGKAPKLLIYAASSLQSGVPSRFSGSGSGTDFTLTISSLQPEDFATYYCAAYDYSLGGYVFGDGTKVEIKRTVAAPSVFIFPPSDEQLKSGTASVVCLLNNFYPREAKVQWKVDNALQSGNSQESVTEQDSKDSTYSLSSTLTLSKADYEKHKVYACEVTHQGLSSPVTKSFNRGEC | 8.61 | 5 | 11.2 | 4.2 | 5.75 | 1 | 7 | no binding | 5.75 | no binding | 5.75 | – | – |
| AX1DG IgG2 (antibody, V domains shown, IgG2; also called AXIDG) VH: EVQLLESGGGLVQPGGSLRLSCKASGFTFTSYYMHWVRQAPGKGLEWIGRINPDSGSTKYNEKFKGRATISRDNSKNTLYLQMNSLRAEDTAVYYCARGGRLSWDFDVWGQGTLVTVSS VL: DIQMTQSPSSLSASVGDRVTITCRASQDISRYLAWYQQKPGKAPKLLIYAASSLQSGVPSRFSGSGSGTDFTLTISSLQPEDFATYYCAAYDYSLGGYVFGGGTKVEIK | 8.1 | – | – | 3.6 | 4.61 | – | 7.4 | no binding | 4.61 | no binding | 4.61 | – | – |
| AX114 IgG2 (antibody, V domains shown) VH: EVQLLESGGGLVQPGGSLRLSCKASGYTFSSYGMYWVRQAPGKGLEWIGWIDPGSGGTKYNEKFKGKATISRDNSKNTLYLQMNSLRAEDTAVYYCARERYGYYFDYWGQGTLVTVSS VL: EIVLTQSPATLSLSPGERATITCRASQYVGTYLNWYQQKPGQAPRLLIYDASNRATGIPARFSGSGSGTDFTLTISSLEPEDFAVYYCQVWDSSPPVAFGGGTKVEIK | 11.6 | – | – | – | – | – | – | – | 24 | – | – | 11.2 | – |
| AX132 IgG2 (antibody, from another filing, V domains shown) VH: EVQLLESGGGLVQPGGSLRLSCKASGYTFSSYGMYWVRQAPGKGLEWIGWIDPGSGGTKYNEKFKGKATISRDNSKNTLYLQMNSLRAEDTAVYYCARERYGYYFDYWGQGTLVTVSS VL: EIVLTQSPATLSLSPGERATITCRASQYVGSYLNWYQQKPGQAPRLLIYDASNRATGIPARFSGSGSGTDFTLTISSLEPEDFAVYYCQVWDSSPPVVFGGGTKVEIKR | 2.59 | – | – | – | – | – | – | – | – | – | – | – | – |
| AX132 IgG2 (antibody, V domains shown) VH: EVQLLESGGGLVQPGGSLRLSCKASGYTFSSYGMYWVRQAPGKGLEWIGWIDPGSGGTKYNEKFKGKATISRDNSKNTLYLQMNSLRAEDTAVYYCARERYGYYFDYWGQGTLVTVSS VL: EIVLTQSPATLSLSPGERATITCRASQYVGSYLNWYQQKPGQAPRLLIYDASNRATGIPARFSGSGSGTDFTLTISSLEPEDFAVYYCQVWDSSPPVVFGGGTKVEIK | – | – | – | – | – | – | – | – | 6.16 | – | – | 2.76 | 100 |
